Literature values as cited in PMC8790524.

What was measured:
[1] = target: IL12Rβ1 ECD (Homo sapiens) (UniProt P42701); experiment: ITC
IL23R ECD (Homo sapiens) = IL23R ECD (Homo sapiens) (UniProt Q5VWK5); experiment: ITC
Chain of IL23R ECD (Homo sapiens) (Q5VWK5 24-355): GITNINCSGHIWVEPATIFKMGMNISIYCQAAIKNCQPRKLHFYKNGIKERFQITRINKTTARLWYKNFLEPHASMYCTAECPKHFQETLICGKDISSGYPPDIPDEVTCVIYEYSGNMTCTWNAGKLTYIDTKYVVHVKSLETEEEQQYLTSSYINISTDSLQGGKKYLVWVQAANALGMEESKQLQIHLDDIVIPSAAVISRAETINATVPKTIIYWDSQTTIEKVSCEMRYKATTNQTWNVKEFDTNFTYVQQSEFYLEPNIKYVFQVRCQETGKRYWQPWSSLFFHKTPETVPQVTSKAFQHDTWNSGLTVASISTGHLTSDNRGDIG

Chain of IL-23 (Q9NPF7 20-189): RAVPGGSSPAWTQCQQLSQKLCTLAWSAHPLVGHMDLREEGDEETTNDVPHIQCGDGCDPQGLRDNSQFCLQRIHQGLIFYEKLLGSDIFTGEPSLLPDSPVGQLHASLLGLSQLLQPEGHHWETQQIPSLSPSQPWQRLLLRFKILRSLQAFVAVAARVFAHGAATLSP
Chain of IL-23 (P29460 23-328, further chain): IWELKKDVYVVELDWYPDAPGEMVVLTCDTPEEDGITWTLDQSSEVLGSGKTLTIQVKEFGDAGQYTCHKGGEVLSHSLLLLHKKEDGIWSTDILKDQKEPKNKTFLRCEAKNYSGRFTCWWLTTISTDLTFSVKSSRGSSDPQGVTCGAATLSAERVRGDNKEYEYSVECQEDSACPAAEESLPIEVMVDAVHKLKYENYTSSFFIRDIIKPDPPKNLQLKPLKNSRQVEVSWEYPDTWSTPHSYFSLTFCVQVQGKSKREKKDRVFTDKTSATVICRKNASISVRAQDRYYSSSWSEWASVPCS

IL-23 (from UniProt Q9NPF7)
Kd [1]: 2000 nM | Kd (IL23R ECD (Homo sapiens)): 44 nM
